The target in the assay is soluble WT SARS-CoV-2 spike trimer protein (SARS-CoV-2, wild-type (NC_045512), UniProt P0DTC2). In words: ELISA.

B1: COV2-2490 (antibody, V domains shown)
VH: EVQLVESGGGLVQPGGSLRLSCAASGFTFSSYWMNWVRQAPGKGLEWVANINQDGGEKYYVDSVRGRFTISRDNAKNSLYLQMNSLRAEDTAVYYCARDPYDLYGDYGGTFDYWGQGTLVTVSS
VL: not shown
Take B1: the binding result was “binds”.

B2: 8D2 (antibody, V domains shown)
VH: EVQLVESGGGLVQPGGSLRLSCAASGFTFSSYWMSWVRQAPGKGLEWVANINQDGSEKYYVDSVKGRFTISRDNAKNSLYLQVNSLRAEDTAVYYCARDWDYDILTGSWFGAFDIWGQGTTVTVSS
VL: DIQMTQSPSSLSASVGDRVTITCRASQGIRNDLGWYQQKPGKAPKRLIYAASSLQSGVPSRFSGSGSGTEFTLTISSLQPEDFATYYCLQHNSYPLTFGGGTKVEIK
For the molecule B2, the binding result is “binds”.
